Experimental data from US20220169997.

Key:
[1] = tested on: PR406: SP(HSA)-PTEN-L-cathepsin B-HSA-6xHis
[2] = tested on: PR402: SP(HSA)-PTEN-L-HSA-6xHis
[3] = tested on: PR405: SP(HSA)-PTEN-L-MMP2/9-HSA-6xHis
[4] = tested on: PR408: SP(HSA)-PTEN-L-cathepsinB**-HSA-6xHis
[5] = tested on: PR407: SP(HSA)-PTEN-L-cathepsin B*-HSA-6xHis

Sequence of Recombinant active MMP2 protease (Enzo cat. #BML-SE237-0010) (chain, as listed by the source): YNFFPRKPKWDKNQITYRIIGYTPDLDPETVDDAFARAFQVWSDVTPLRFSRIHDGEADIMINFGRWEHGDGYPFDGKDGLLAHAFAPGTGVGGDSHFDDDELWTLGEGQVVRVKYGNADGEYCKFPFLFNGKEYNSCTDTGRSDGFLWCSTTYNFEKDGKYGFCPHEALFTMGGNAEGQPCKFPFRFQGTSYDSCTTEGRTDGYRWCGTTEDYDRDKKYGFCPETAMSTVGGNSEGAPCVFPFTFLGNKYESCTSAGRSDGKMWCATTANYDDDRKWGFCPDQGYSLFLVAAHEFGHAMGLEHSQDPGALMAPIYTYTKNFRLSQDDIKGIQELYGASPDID

Row | Substance | in vitro cleavage of the fusion in CHO-3E7 supernatant (0.3 µg/ml CATSB), WB with F-1 anti-PTEN (no cleavage) [1] | in vitro cleavage of the fusion in CHO-3E7 supernatant, WB with F-1 anti-PTEN (no cleavage) [2] | in vitro cleavage of the fusion in CHO-3E7 supernatant (0.3 µg/ml CATSB), WB with F-1 anti-PTEN (no cleavage) [3] | in vitro cleavage of the fusion in CHO-3E7 supernatant, WB with F-1 anti-PTEN (no cleavage) [1] | in vitro cleavage of the fusion in CHO-3E7 supernatant, WB with F-1 anti-PTEN (no cleavage) [4] | in vitro cleavage of the fusion in CHO-3E7 supernatant, WB with F-1 anti-PTEN (no cleavage) [5] | in vitro cleavage of the fusion in CHO-3E7 supernatant (20 nM MMP2, 0/4/21 h), WB with F-1 anti-PTEN [3]
1 | Active CATSB (BioVision #7580-5) | though it did not cleave PR406 (SEQ ID NO:130; cDNA SEQ ID NO:158) | PR402 was not appreciably cleaved by either recombinant MMP2 or CATSB | PR405 (SEQ ID NO:129; cDNA SEQ ID NO:157) was not cleaved by CATSB |  |  |  | 
2 | Recombinant active MMP2 protease (Enzo cat. #BML-SE237-0010) |  | PR402 was not appreciably cleaved by either recombinant MMP2 or CATSB |  | MMP2 did however cleave its consensus site (SEQ ID NO:165) on PR405 only | MMP2 did however cleave its consensus site (SEQ ID NO:165) on PR405 only | MMP2 did however cleave its consensus site (SEQ ID NO:165) on PR405 only | MMP2 did however cleave its consensus site (SEQ ID NO:165) on PR405 only; this cleavage released a PTEN-L-like fragment (˜70 KDa)
